Paper PMC8039031

Molecular target: CREPT (RPRD1B) (UniProt Q9NQG5)
Experiment: co-IP
Settings: reference: wild type; sites Y705

STAT3 (from UniProt P40763) Y705F
binding against the reference: lost
